Test system: K4 kissing-loop RNA reporter
Test: apparent KD of K4 kissing-loop reporter; higher = weaker reporter binding
Conditions: Eterna round: R107
Method: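 RNA-MaP round R107: designed RNA switches with theophylline, tryptophan, arginine or FMN aptamers are transcribed on-chip within common flanks. They are titrated with a labelled K4 kissing-loop RNA reporter in RNA-MaP buffer (100 mM Tris pH 7.5, 80 mM KCl, 4 mM MgCl2), without ligand or with the indicated ligand. Median apparent KD per design.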

[1] = input ligand: theophylline 20 uM
[2] = input ligand: tryptophan 2.4 mM
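Note: bound reporter read as fluorescence of individual clusters on recovered sequencing chips by microscopy, with normalized cluster intensities fitted with a binding model.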

Sequence | apparent KD of K4 kissing-loop reporter (input ligand: FMN 200 uM) | apparent KD of K4 kissing-loop reporter (input ligand: arginine 13.2 mM) | apparent KD of K4 kissing-loop reporter (input ligand: none) | apparent KD of K4 kissing-loop reporter [1] | apparent KD of K4 kissing-loop reporter [2]
GCCGUAGAUUGAAGGAGCGCCUUCUUACCAAGAGUGAUGUUCUUUGGUACCAUGUUCAGUAGGCAGGUAGGUCGCAAUCUACGGC | 292 nM | 258 nM | 332 nM | 387 nM | 390 nM
GCCAGGCAUCUGCAGAGUGAUGUUCAAAAGCGAGGACCGGUACGGCCGCCACUCGAAAGCAGAUGCCUGGGCGUACAAAGUACGC [idea] | 1140 nM | 262 nM | 984 nM | 562 nM | 899 nM
CGUACGGUUUCUUUCUUUCCGUACGAGUGCCGAGGACCGGUACGGCCGCCACUCGCUACAGCCUAGUGAUGUUAGGAACGUGUUA | 87.2 nM | 73.1 nM | 81.8 nM | 87.3 nM | 54.7 nM
AGCAUUUUCAGAAGGAGCGUGAAUUAUUCUUAAUUAUAUUAUACGAGUGAUGUUCGUGUUUCACAGGUAGGUCGCUGAUAUAGCA [JR_SSArginiB_Sub004] | 51.4 nM | 90.3 nM | 47.7 nM | 98.3 nM | 45.5 nM
CGUUUAGUGAUGUUAAGCGUCCACUACGAUACCAGAACUAUAACCUUCCCUUGGCAGCGUUUAUAUUGUAACUCAUGUGUUAAUU [theeternabot_exclusion_KL_Theo_A_11] | 520 nM | 296 nM | 474 nM | 503 nM | 468 nM
GGCGGCUGCGCGCAAGCGCAGCCGGCCGAUACCAGCGCGACGGCGCGCCCUUGGCAGCGGCGCCGAGUGAUGUUCGGCCUGCCGG [#2 Same State - Theophylline A Attempt #19 (HarryS)] | 433 nM | 380 nM | 738 nM | 418 nM | 416 nM
ACUCCGAGUGAUGUUAAGAGAUUCUCUGUUAAGGAUAUUUUGCGCAAAAGAAGGUAACCCGGUUUUCGUAAUCUGUUAAUGCGGA [theeternabot_exclusion_KL_FMN_A_38] | 572 nM | 408 nM | 581 nM | 532 nM | 503 nM
AAAUUUAUAUUAGAUACCAGCAAAUUGAAAGUUUAUUAUGACAAGAGUGAUGUUCUUGUAUGCCCUUGGCAGCUGGUAUGGGUUU [KL-XTheo-B26] | 112 nM | 106 nM | 120 nM | 111 nM | 108 nM
UUCUACGAGUGAUGUUCGUAGUGUAUUCACUAGGAUAUCGUUUUUUCGAGAAGGAGUGAGGAAGUGAUACGAAAGUAUCGCUUCC [FMN A 15] | 192 nM | 353 nM | 431 nM | 361 nM | 378 nM
CAUGGACUUCCAGUGUAUCCAUGACUGGAUACCAGUCAGGAAACUGACCCUUGGCAGCCAGAACUGGAAGUGAUGUUUCCAGUAA [Design8] | 227 nM | 214 nM | 244 nM | 244 nM | 240 nM
AGAGGAAAUAGAAGGAGCGGCGCCAGUGAUGUUGGAUGCCGCGGGUGAAUCAGGUCAUAGUGCCAGGUAGGUCGCUAUUUCAGCG [Larebeve] | 177 nM | 112 nM | 141 nM | 161 nM | 138 nM
CUGGGUUGACGAAAAGUCAACAAACGAGAAGGAGCGCACGAAAGUGCAGGUAGGUCGCUCAGUCCAGUGAUGUUGGAACAUCCAG [#SwitchBubble 8 #K4Late] | 664 nM | 498 nM | 462 nM | 508 nM | 436 nM
UGAUUGCCAGUGAUGUUGGCAUAUACUGAAGGAGCGCGUGAAAACGCAGGUAGGUCGCAGUUCCUUGCCAAUUGAUCGAAAGAUC [KL-XArg-A1] | 130 nM | 138 nM | 137 nM | 150 nM | 127 nM
CCAGGACGAUGAGGAGGAUGAAUUACUGAAGGAGCGCAUAUGGUUGCAGGUAGGUCGCGGUGAACAAGUAUAGUGAUGUUAUACC [SSArgA.T] | 339 nM | 290 nM | 368 nM | 343 nM | 445 nM
AUCUGUCAAGGACAACAUUACUGAGGUGAUACCAGCAUCGAAAGAUGCCCUUGGCAGCACCAACUUGCAGUGAUGUUGCAAGUAA [BrourdMod 10 - Jieux - Exclusion - Theophylline A] | 346 nM | 236 nM | 332 nM | 393 nM | 299 nM
GGUAGCAUGGCGGCCGCCACUUUGCACCUUUUCUUUUCUUUUGGUGCUUCACGAGUGAUGUUCGUAAGGACCGGGCCAUGCUACC | 259 nM | 217 nM | 261 nM | 213 nM | 195 nM
AAAUUUUAAAGUGAUACCAGACAUCUCUAUUACAUUAAUAUAGCUAAGUGAUGUUUAGCAGUCCCUUGGCAGCACAAUUUAAUUA [JR_SSTheophyB_Sub012] | 336 nM | 316 nM | 334 nM | 474 nM | 266 nM
UGGAUAUCGUUUAGUCUGGUGAGCUCAGAUACCAGACUAGCGAUGGUCCCUUGGCAGCUGAUUACGAUUGAGUGAUGUUCAAUCG [Theo A Ex t9c] | 168 nM | 152 nM | 172 nM | 160 nM | 158 nM
